Results from a protein production outcome set (Wang et al. 2014).

assay: label from the status in PepcDB records
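Also: failed if final PepcDB status was selected cloned or expressed and not failed if soluble or beyond.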

| Sequence | protein production |
| --- | --- |
| MTEIDSNLKDAQSVAVSGHVRPDGDCVGSTLAVYNYIKDYYPDIKARLYLEPSPNIFKFMQRADEIDSSYADDTVYDLFIACDCSDTGRLGSAAKYFESAKRTLCIDHHVTNGAFADTNYIFPDASSTCELVFELLPKERITIQIAECIYTGMVHDTGVFQYSCTSKKTMDIAGSLMEMGIDYSRIIDDTFYTKTFAQNKIMGQALLNAALYLNGDVILSAVSRAEMEKYDVLPKHLDGIVNQLRVTKDIKVAVFLYENEDGTYKGSLRVNGDYDVAKVASVFGGGGHVKAAGFTIEGPLEVATDRILTAIKDNI | failed |
| MTEIKYKVITKDAFALPYTIIKAKNQPTKGVIVYIHGGGLMFGKANDLSPQYIDILTEHYDLIQLSYRLLPEVSLDCIIEDVYASFDAIQSQYSNCPIFTFGRSSGAYLSLLIARDRDIDGVIDFYGYSRINTEPFKTTNSYYAKIAQSINETMIAQLTSPTPVVQDQIAQRFLIYVYARGTGKWINMINIADYTDSKYNIAPDELKTLPPVFIAHCNGDYDVPVEESEHIMNHVPHSTFERVNKNEHDFDRRPNDEAITIYRKVVDFLNAI | failed |
| MTEIYTSVLSYRLLEGKAYSDADTRSLDRMMRSIDEFFSANPGYINFHIYRSYRTDSDVIFWYSSRNPDLMILAKERVQASMRPIAVSSFSSISIYDESPYNAMNKKLEDSLRLPPLRYFVAYPMSKTPDWYLLDFDTRKEIMHEHIKMALNHPDEKGIRSYTTYSFGIGDQEFVVLYEIPDIAAWSRVTEKLREARARKWIIKETPILLGRLVDAGDIAGFLL | not failed |
| MTELATMEFHAQPQAGEPKPWAFPAPERGSLDNGLTVLRCHRPGQQVVAVEVLLDAPLDAEPAGLDGVATIMARAFSEGTDKHSAEDFAAELERCGATLDAHADHPGVRLSLEVPASRLGKALGLLADALRAPAFADGEVERLVRNRLDEIPHELANPSRRAAKELSKELFPADARMSRPRQGTEETVETIDSAAVRAFYERHVRPATATAVVVGDLTGVDLDALLADTLGAWTGSAAEPRPVPPVTADDRGRVVIVDRPGAVQTQLLIGRTGADRHDRVWPAQVLGTYCLGGTLTSRLDRVLREEKGYTYGVRAFGQVLRSAPDGTGAAMLAISGSVDTPNTGPALEDLWTVLRKLAAEGLTDAERDVAVQNLVGVAPLKYETAAAVASTLADQVEQHLPDDFQATLYRQLAATGTVEATAAVVNAFPVDRLVTVLVGDAAQIKEPVEALGIGEVTVVAAE | failed |
| MTELEDPSRDRLKHHFAQRVIHQARQILETWQRLQKAQWSVADMAELKEATLRLMRFAERFEQAEHVALAHEINQSLDAVDANRGRLNSHVITELNRLMQRLSRTGLRHGDRLEQTSLPPLRKPVYVVLQDHERAERLAKQLEFFGLSALSLHSVADFQRAMAQRHPAAIVMDVDFSGPGMGLELASQAQEGLEQKLPLLFFSVHETDTPTRLAAVRAGGEEFLTGALEASSLLEKIEVLTCVAQYEPYKVLIIDDSRAQAMHTERVLNAAGIVTRVLIDPIQAMSELADFQPDLIILDMYMPGCTGTELAKVIRHNDRYVSVPIIYLSAEDDQDKQLDAMSEGGDDFLTKPIKPRHLITTVRNRAARARNLKSRMVRDSLTGLYNHTHILQLLEDCSFRSRREGKPLCFAMLDIDHFKRVNDSHGHPMGDRVIKSLALFLKQRLRKTDFIGRYGGEEFAIVMPDTDIHNAHKVLDEIRHRFAEIHYPAQPADLFCTFSAGVVCLGADDDSLSLASQADNALYRAKHAGRNQVHSALVQAPYHIVLAEIEA | failed |
| MTELGTVLDGKYEILKKVGQGGMSIVYLAMDNRLNKQWAVKEIKNDGSKSTATLLKSLEREANILKDVDHPVLPRIVDIINENGTIYVVMDFVEGKPLSDVLKAEGAQDQNKVIEWGRALASALDYLHSMNPPIIYRDMKPSNVMLKPDGSVKLIDFGTAKEYIVENNADTTALGTRGYAAPEQFGDSQGRGIYNTDARTDIYNLGATLYHLVTGKNPCEPPYEIKPIRQWNPTLSSGFEQIIIKCCQPSPEDRYQSCSELLYALDHYNELDNEFKAKAKRKVAVFATMAGLSILSGCCAIFGGVKKGQLKEQDYNNKIAEAEDAVDSSDYNKAFECYKAAVDIDPTASEAYIGYMDTYAYYYTDEDVATGTGTETPAEKGIKFALRNIDKVKDDVKYEIALLYFNEVPDYSAARKYFNMVGDTENFANDVKQAKYYEAICDNKINKTADFNDSKQEVFDFQQYNSDNIDDTNTYKYVNYLNIATIYVDKLSSDEELANRTIELLQEASDKLNDNATVLSKEFPEERGVNYYSGQYSAILCSVYTYLAEKESDPVEQVAYYREAINSIDSYLSGLDMNGDAVTEKTKNVYAEYSRKKAEIYVSMGDISGDDKNYELAENVYLSAEQMLGVDDYSADLYTSHLTYLYNRYTDLYGSAPDTWDKSARNTVISVYNSGSRISMLADGKKPQWNTLIHKPVIEAIVSGTGSKTGK | failed |
| MTELRPGGPMYGPTPPLPLPTDRLQFAMPPMYESLDDERTHRKERLAGALRLFGRLGFEDGVSGHITARDPEYSDCFWVNPFGMPFKHVTVSDLVMVNASGQVIEGRYHVNQAAFTVHAQVHAARPDVVAVAHCHSVHGRALSALGDLLDPITQESCAFYEDHALYDAYTGVAVDAEEGRRIASALDTRKALVLRNHGLLTVGDSVDAAAWWFVSMERSCQVQLTARAAGRPVLIDHKQAVATREQLGGDLVAWINYQPLWQDISRSEPDLLS | failed |
| MTEMQSLRHRLIRQPGPVSGECWIAFFDGVAHPVLIKNAQGQVIFANRAACDLLGRDRSGLAGGAEHELVAGTQAEQIASFDAEAMRRGSVSAEQEMPGPRGVRRFLVSRRPAGEHLVVTFFEITDLRETEGVLRQREAHLRNLLELHPVAPFSFTADGVLSDLSDRLVAITGLPAGTRHVDAWWAAMHPCDRRDLRRAWIRSVRGGQSFDAEHRLQMPDGAYRWFRARIVARPRDQDQRVDRWFGIIEDVHERRTTVEQLRESEARFRAFADDAPVMIWVTDTEGRNVFVSRSWLGATGQSLDEALGTGWIDAVHPDDRDATAAITREAMRRRIAYTNEFRIRRKDGGWCWVIDVGHPRLLADGTFIGYIGCCVDISARRQAEDDRVMAQLQVFHMARHDMLTGLPNRHYFGDCYQEAVASLAPERSVAVLMLDLDGFKTVNDTRGHPVGDQVLCEVANRLRTSVRSTDTVARLGGDEFAVIQTPIRSEQEACDLARRLIAAISKPFDLEGAVPEVGASVGIAFARGHGDSAEEIMRYADVALYAAKQAGRGTFRVFDEATDTHLQSRQKMKAALRAALGLGELSVFYQPLIGLRDGQVTACEALMRWHRKGAGWITPDQFIPLAEEAGLIGDMGDWVLHEACAQAARWPDSVSVAVNLSPLQFHGGALVDQVASALRASGLPPERLQLEITESVLLDPTDRNIGVLQDLRALGAKIVMDDFGTGYSSLGYLRSFPFDKIKVDRSFIRDLPDAREALAILKAVAGLGRSLDMRTTVEGVETQAQLDCAIAEGVDEAQGYFFSRPLPAPGIASFISGCLPKRRIQPATGDAAT | failed |
| MTENELLTRCGGKCELCGSDVELAIYDLPASDGHENEIMICENCSSQIAAPDTMDMNHWRCLNDSMWSQVPAVQVMSYRMLKRLSGESWAQDLLDMLYLEDDLRAWGDAEAAAASDDTPPTLDSNGAVLNAGDTVVIIKDLNVKGTSFVAKRGTAVRNIALTNNPEHIEGRVNGTRIVILTCFVKKSLEHHHHHH | not failed |
| MTENTKISLIVQEADYNDVGRGYAKINNDVMAKLGVESGDFIKITGKRMGAAKVMRSSVSGSGGIAIDGDIRRSAGAGIGDTVTVEKVVPKTAAKITLQPISQSIRLDSRALEQTIQSKFAGRPITKGQIMTFGFQTKSEDPFFSGWGGFSNYNTEYVDFAVSDVSPGDVAIIGSETTVNYKDSVYKGEDAPKGKSAGNIHYEDIGGLGRELSLVREMIEYPLRHPEVFEKLGIEPPKGVLLYGPPGTGKTLIARAVANEAGAYFDTISGPEIISKYYGDSEEKLREIFEKAEENAPSIIFIDEIDSIAPKREESKGEVERRVVAQLLSLMDGLKSRGKVIVIAATNLPDSIDPALRRGGRFDREIEIGVPDKDGRREILQIHARNVPLSENVKLEKYANTTHGFVGADLALMVKEAAMHALRRAFPGMNPDEEISAEKLENLKVTAEDFESALKMVQPSAMREVLVEVPDIHWADVGGLDSVKEELQQAVEWPLKYREVYKQFATKSPKGFLMFGPPGTGKTLLAKAVANESECNFISVKGPELMSKWVGESEKGIREIFRKARLASPSIIFFDEIDSIVPRRGSYEGSSHVTESVVSQFLTELDGLEELKNVVVIGATNRPDMIDPALLRPGRLEQHIFVPPPDREGRKQILDVYIKDISSMLAEDVNLDELVDKTEGFVGADIEALVREAKMVAIREFVKVMAGHDAAEITLAVSSVKVFGRHFDAALKRVRPSLDKEGRRSAERGSWQYRFNEEERKTLEKGISVVETAEYKDAGSTPELRELDELLMAHQKDFSRIKEIIKTADA | failed |
